What was measured:
[1] = molecular target: Xenopus tropicalis MDM2 414-C (MDM2^f), GST-tag removed (Xenopus tropicalis (western clawed frog)); assay: crystal structure; MDM2^f or MDM2^hGT mixed with UbcH5B–Ub at 1:1 ratio; crystals grown at 19 °C by vapour diffusion
[2] = molecular target: Xenopus tropicalis MDM2 414-C (MDM2^f), GST-tag removed (Xenopus tropicalis (western clawed frog)); assay: SEC; cleaved MDM2 variants after removal of the GST-tag on HiLoad 16/600 Superdex 75; oligomeric state by comparison with molecular weight markers
[3] = molecular target: Xenopus tropicalis MDM2 414-C (MDM2^f), GST-tag removed (Xenopus tropicalis (western clawed frog)); assay: crystal structure; free MDM2 RING domains (MDM2^z, MDM2^f); crystals grown at 19 °C by vapour diffusion
[4] = molecular target: opossum MDM2 421-C, GST-tag removed (Monodelphis domestica (opossum)); assay: SEC; GST-MDM2 variants (3 mg/mL) incubated with 1:10 TEV for 16-20 h at 4 °C; soluble fraction of the cleaved products on Superdex 75 Increase 10/300; comparison with molecular weight markers and SDS-PAGE

Substance	stoichiometry N [1]	stoichiometry N [2]	stoichiometry N [3]	stoichiometry N [4]
Xenopus tropicalis MDM2 414-C (MDM2^f), GST-tag removed (domain or fragment)	2	2	2	
opossum MDM2 421-C, GST-tag removed (domain or fragment)				2
